# Article PMC7347289
# Molecular target: Sambucus nigra agglutinin (Sambucus nigra)
# Assay: localized surface plasmon resonance
# Sequence of Sambucus nigra agglutinin (Sambucus nigra) (Q41358 29-289 limits assumed, chain 1 of 2): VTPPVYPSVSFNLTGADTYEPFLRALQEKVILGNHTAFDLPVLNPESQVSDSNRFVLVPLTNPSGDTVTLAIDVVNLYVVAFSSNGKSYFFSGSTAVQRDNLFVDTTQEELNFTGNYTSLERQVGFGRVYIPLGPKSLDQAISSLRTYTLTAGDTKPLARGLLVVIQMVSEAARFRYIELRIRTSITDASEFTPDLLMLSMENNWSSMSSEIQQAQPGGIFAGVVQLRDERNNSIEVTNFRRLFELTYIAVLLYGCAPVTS
# Sequence of Sambucus nigra agglutinin (Sambucus nigra) (Q41358 309-570 limits assumed, chain 2 of 2): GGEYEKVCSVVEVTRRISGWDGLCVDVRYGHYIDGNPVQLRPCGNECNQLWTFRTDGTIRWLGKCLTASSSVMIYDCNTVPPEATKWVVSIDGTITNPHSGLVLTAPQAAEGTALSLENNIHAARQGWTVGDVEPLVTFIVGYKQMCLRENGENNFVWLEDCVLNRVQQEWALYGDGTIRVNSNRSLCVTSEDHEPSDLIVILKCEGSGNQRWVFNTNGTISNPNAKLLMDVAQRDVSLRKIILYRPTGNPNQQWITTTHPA
substance,measurement,value
α-1 acid glycoprotein (from UniProt P02763 19-201) (natural protein),Kd,31 µM
